Measured values taken from article PMC8494329.

Target: 16055 NFL trimer (native flexibly linked HIV-1 Env stabilized trimer, clade C strain 16055) (HIV-1, clade C, strain 16055)

B1: VD20.5A4 Fab (Fab, V domains shown)
VH: QVQLQESGPGLVKPSETLSLTCAVSGASISSNYWSWIRQPPGKGLEWIGRIYDPTDSTDYNPSLESRATISKDTSKNHFSLTLSSVTAADTAVYFCARGLWSGYFFWFDVWGPGVLVTVSS
VL: DIQMTQSPSSLSASVGDSVTVTCRASQGIDKELSWYQQKPGKAPTLLIYAASSLQTGVSSRFSGSGSGTDYTLTISSLQPEDVATYYCLQDYATPYSFGQGTKVEIK
B1 showed an IC50 of neutralisation of the autologous 16055 pseudovirus (TZM-bl cells); the mAb on Env of the virus of 0.005 μg/mL.

B2: D11A.B5 Fab (Fab, V domains shown)
VH: HLQLQESGPGLVKPSETLSLTCAVSGGSSSDYWWSWIRQPPGKGLEWIGRIDSIGNTYYNPSLRSRVTLSVDTSKNQFSLELTSVTAADTAVYYCARPYCAIGRCYESWGQGVLVTVSS
VL: EVVFTQPHSVSGSPGQTVTISCTRTSGSIDSEYVQWYQQRPGSAPTIVIYRDNQRPSGVPDRFSGSIDSSSNSASLAISGLKSEDEADYYCQSSDDSYNWVFGGGTRLTVL
Binder B2 has an IC50 of neutralisation of the autologous 16055 pseudovirus (TZM-bl cells); the mAb on Env of the virus of 3.68 μg/mL.
